Paper PMC2330244
Where two headings read alike, the source gives them in different places.

T1: p73α (UniProt O15350 1-636)
T1 sequence: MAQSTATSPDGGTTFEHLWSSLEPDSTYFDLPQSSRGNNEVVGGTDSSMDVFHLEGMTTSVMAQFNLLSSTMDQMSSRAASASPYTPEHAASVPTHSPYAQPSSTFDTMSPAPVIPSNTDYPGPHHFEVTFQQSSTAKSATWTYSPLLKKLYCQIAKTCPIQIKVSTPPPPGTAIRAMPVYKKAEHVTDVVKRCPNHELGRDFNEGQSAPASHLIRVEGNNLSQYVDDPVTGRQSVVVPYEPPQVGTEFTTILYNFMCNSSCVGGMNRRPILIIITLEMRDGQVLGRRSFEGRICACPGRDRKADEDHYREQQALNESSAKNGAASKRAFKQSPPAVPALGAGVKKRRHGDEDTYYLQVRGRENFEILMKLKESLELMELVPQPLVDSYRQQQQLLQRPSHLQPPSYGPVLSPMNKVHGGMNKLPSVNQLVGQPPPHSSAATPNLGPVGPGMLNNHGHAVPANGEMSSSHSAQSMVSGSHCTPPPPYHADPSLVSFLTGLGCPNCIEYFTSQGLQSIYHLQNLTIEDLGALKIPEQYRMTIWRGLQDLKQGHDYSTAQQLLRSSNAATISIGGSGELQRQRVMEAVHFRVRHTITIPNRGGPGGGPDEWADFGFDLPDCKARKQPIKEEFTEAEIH

T2: p73γ (UniProt O15350-3 1-475)
T2 sequence: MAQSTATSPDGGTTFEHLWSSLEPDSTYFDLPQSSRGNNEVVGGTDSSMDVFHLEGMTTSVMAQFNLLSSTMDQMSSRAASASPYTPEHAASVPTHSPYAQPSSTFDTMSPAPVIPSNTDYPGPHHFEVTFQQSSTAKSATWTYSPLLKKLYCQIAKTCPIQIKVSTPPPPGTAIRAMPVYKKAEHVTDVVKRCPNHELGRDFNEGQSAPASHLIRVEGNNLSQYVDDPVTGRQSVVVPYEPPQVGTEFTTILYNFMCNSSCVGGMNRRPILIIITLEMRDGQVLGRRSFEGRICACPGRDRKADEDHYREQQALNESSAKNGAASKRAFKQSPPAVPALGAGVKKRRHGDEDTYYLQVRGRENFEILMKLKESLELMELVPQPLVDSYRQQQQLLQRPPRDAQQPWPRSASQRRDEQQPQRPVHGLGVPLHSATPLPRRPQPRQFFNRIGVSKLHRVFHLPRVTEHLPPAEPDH

T3: p73δ (UniProt O15350-4 1-403)
T3 sequence: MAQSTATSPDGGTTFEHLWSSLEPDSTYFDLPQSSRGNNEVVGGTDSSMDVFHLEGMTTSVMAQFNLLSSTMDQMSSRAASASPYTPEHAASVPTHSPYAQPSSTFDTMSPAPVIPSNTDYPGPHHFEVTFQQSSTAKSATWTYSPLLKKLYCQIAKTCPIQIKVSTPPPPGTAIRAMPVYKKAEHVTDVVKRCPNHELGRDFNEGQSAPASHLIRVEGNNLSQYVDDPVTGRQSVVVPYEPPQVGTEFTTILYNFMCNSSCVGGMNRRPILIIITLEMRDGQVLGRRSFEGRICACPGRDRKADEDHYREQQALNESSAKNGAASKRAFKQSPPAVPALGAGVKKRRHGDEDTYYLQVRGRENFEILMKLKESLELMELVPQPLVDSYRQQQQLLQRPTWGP

T4: p73β (UniProt O15350-2 1-499)
T4 sequence: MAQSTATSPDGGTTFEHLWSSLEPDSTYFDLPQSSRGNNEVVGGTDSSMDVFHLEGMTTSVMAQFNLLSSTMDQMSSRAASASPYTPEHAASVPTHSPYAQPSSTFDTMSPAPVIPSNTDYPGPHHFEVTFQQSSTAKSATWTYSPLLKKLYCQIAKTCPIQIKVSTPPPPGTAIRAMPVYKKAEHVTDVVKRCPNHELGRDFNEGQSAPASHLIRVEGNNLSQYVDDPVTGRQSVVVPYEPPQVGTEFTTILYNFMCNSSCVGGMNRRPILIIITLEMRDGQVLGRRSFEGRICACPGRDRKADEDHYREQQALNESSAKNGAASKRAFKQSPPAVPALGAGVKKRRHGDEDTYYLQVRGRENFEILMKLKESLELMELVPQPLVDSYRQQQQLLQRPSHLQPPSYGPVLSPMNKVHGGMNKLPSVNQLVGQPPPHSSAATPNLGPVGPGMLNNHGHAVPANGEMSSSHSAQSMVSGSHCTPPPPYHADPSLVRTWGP


Columns and labels:
Assay in all cases: EMSA
p73α [1] = target: T1, p73α
p73α+30 [2] = target: T5, p73α+30 (UniProt O15350 1-636+P04637:364-393, internal_change)
p53 [3] = target: T6, p53 (human, UniProt P04637 1-393)
p73γ = target: T2, p73γ
p73α+30 [4] = target: T5, p73α+30; remark: listed apart in the source
p53 [5] = target: T6, p53; remark: listed apart in the source
p73α [6] = target: T1, p73α; remark: listed apart in the source
p73δ = target: T3, p73δ
p73β = target: T4, p73β
p73α+30 [7] = target: T5, p73α+30; remark: listed apart in the source
p53 [8] = target: T6, p53; remark: listed apart in the source

T6 sequence (P04637 whole entry): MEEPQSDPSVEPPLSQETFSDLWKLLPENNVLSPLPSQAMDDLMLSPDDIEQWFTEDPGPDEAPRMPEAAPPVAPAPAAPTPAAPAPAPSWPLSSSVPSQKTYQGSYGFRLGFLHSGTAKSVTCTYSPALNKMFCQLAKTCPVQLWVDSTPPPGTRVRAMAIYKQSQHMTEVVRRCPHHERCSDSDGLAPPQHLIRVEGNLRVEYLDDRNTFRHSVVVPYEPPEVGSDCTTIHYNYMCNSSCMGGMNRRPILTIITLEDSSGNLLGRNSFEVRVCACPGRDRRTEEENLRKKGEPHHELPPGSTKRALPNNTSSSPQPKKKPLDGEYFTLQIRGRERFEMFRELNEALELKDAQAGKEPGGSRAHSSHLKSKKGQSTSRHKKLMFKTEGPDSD

Binder	binding result (p73α [1])	binding signal (p73α+30 [2])	binding result (p53 [3])	binding result (p73γ)	binding signal (p73α+30 [4])	binding result (p53 [5])	binding result (p73α [6])	binding result (p73δ)	binding result (p73β)	binding result (p73α+30 [7])	binding result (p53 [8])
p21-5' site 66 bp (dsDNA) DNA 1: AGCATTGGCTTTCTGGCCATCAGGAACATGTCCCAACATGTTGAGCTCTGGCATAGAAGAGGCGCT DNA 2: AGCGCCTCTTCTATGCCAGAGCTCAACATGTTGGGACATGTTCCTGATGGCCAGAAAGCCAATGCT	binds	~5 fold vs 28 bp oligonucleotide	binds	binds	–	–	–	–	–	–	–
p21-5' site 28 bp (dsDNA) DNA 1: TCAGGAACATGTCCCAACATGTTGAGCT DNA 2: AGCTCAACATGTTGGGACATGTTCCTGA	binds	–	–	–	1 fold (reference for 66 bp)	binds	–	–	–	–	–
p53 consensus (dsDNA) DNA 1: GGGTAGACATGCCTAGACATGCCTAAGCTCCC DNA 2: GGGAGCTTAGGCATGTCTAGGCATGTCTACCC	–	–	–	–	–	–	binds	binds	binds	binds	binds
